Results on one substance are retold here after paper PMC8614642.

The term stoichiometry N denotes the number of molecules, sites or subunits per partner or assembly.

The assay concerns the target recombinant K38 depolymerase region (residues 147-742) of the tailspike gp46 of Acinetobacter pittii phage vB_Api_3043-K38 (Acinetobacter pittii phage vB_Api_3043-K38). Put plainly: SEC; analytical size exclusion on Superose 6 10/300 GL, 10 mM PBS pH 7.5, 4 °C, 0.75 mL/min, mass estimated from calibration standards.

Regarding “recombinant K38 depolymerase region (residues 147-742) of the tailspike gp46 of Acinetobacter pittii phage vB_Api_3043-K38 (domain or fragment)”, the stoichiometry N was 3.
